Data on three substances can be found in article doi:10.1101/2022.06.21.496973.

For assay [1], the target named is taxol-stabilized microtubules (co-sedimentation assays) (porcine) (UniProt P02550). The assay can be described thus: co-sedimentation.
For assay [2], the target named is taxol-stabilized rhodamine-labeled, biotinylated microtubules stored overnight at 23°C or 37°C (damaged MTs) (porcine) (UniProt P02550). The assay can be described thus: TIRF microscopy of eGFP fluorescence on immobilised microtubules.
Assay [3] concerns the target 6XHis-Abl2 (murine Abl2, residues 74-1182) (murine) (UniProt Q4JIM5). Put plainly: BLI.
In assay [4] the target is 6XHis-688-924 (Abl2 site I fragment) (murine) (UniProt Q4JIM5). The assay can be described thus: BLI.
Assay [5] concerns the target 6XHis-557-C (Abl2 C-terminal half) (murine) (UniProt Q4JIM5). Put plainly: BLI.
Assay [6] addresses 6XHis-1024-1090 (Abl2 site II fragment) (murine) (UniProt Q4JIM5). The assay can be described thus: BLI.

Substance “6XHis-Abl2Δ688-790 (naturally occurring splice isoform) (from UniProt Q4JIM5 74-1182) (natural protein)” returned a Kd in assay [1] of 400 nM.
Turning to “Abl2-eGFP (from UniProt Q4JIM5 74-1182) (natural protein)”, in assay [1], the Kd stood at 320 nM. In assay [2], the mean fluorescence intensity per µm on MTs stored at 23°C was determined as 0.91 a.u.·µm^-1; the mean fluorescence intensity per µm on MTs stored at 37°C stood at 0.71 a.u.·µm^-1; the mean intensity on borders of damage, MTs stored at 23°C is 0.39 a.u; the mean intensity on borders of damage, MTs stored at 37°C stood at 0.38 a.u. For the same substance, in assay [2], the mean intensity on lattices, MTs stored at 23°C stood at 0.3 a.u and the mean intensity on lattices, MTs stored at 37°C was 0.28 a.u.
In the case of “porcine brain tubulin dimers (from UniProt P02550 1-451; Q767L7 1-444) (complex)”, the Kd in assay [3] worked out at 42 nM; in assay [4] it was 118 nM; in assay [5], 17 nM; in assay [6], 252 nM.

By Kd is commonly meant the free concentration of one partner at which half of the binding sites on the other are occupied at equilibrium, for simple one-to-one binding. Low readings indicate tighter binding, high ones weaker binding.
